Measured values as given in patent publication US10538591B2, “Anti-fibulin-3 antibodies and uses thereof” (THE BRIGHAM AND WOMEN'S HOSPITAL, INC., priority 2014, dated 2020).

What was measured:
U251MG glioma cells = assay: Temozolomide combination viability assay in U251MG cells; assay type: cell-based, human; conditions: increasing concentrations, 72 h
Procedure: The antibody increased the cytotoxicity of TMZ by 30% in average.
Antibodies against fibulin-3 can potentiate the effect of a chemotherapeutic drug. Glioma cells (U251MG cell line) were cultured in presence of increasing doses of temozolomide, which is the standard-of-care drug for treatment of malignant glioma. The drug was combined with antibody vehicle (PBS) or with a fixed dose of anti-Fib3/911 antibody. Viability of the cells was analyzed after 72 h, which is a time period at which temozolomide has only a modest effect on glioma cells.

purified human fibulin-3 = molecular target: T1, purified human fibulin-3 (Homo sapiens, UniProt Q12805); assay: Western blot and dot-blot detection of fibulin-3; assay type: binding; conditions: for detection of fibulin-3 by Western blotting: SDS-PAGE, reducing and/or non-reducing conditions
T1 construct: purchased ORIGENE
T1 sequence (Q12805 18-493): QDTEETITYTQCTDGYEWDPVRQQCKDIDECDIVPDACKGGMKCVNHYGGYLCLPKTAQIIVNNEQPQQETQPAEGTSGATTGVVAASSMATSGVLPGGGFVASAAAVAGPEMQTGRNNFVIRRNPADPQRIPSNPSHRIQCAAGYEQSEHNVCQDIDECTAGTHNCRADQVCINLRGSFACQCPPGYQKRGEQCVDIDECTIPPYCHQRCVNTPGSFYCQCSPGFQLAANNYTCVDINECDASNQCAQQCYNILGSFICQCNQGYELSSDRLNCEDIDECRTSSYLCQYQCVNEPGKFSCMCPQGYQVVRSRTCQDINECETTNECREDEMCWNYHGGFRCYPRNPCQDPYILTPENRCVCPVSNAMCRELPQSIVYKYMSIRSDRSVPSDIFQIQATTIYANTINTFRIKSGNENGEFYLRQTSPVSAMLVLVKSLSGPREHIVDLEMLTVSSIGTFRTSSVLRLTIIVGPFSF
Procedure: CNSI glioma cells were transfected with fibulin-3 cDNA (fib3-OE cells) or a control plasmid (control cells) and cultured for 24 h in serum-free conditions. Conditioned medium was collected and probed by Western blotting with anti-Fib3/911 (911), anti-Fib3/912 (912), or their respective preimmune sera (antibodies and sera were used at 1/5000 dilution).
Two rabbit polyclonal antibodies were commissioned against the 23-amino acid peptide sequence of fibulin-3 involved in Notch activation. The peptide was minimally modified to facilitate the formation of a disulfide bridge necessary to form a conformational, tri-dimensional epitope (FIG. 4). Antibodies against fibulin-3 (“anti-Fib3/911” and “anti-Fib3/912”) were purified by affinity chromatography, aliquoted, and prepared in phosphate-buffered saline (PBS) solution for all subsequent tests.
Purified human fibulin-3 (200 ng/lane, ORIGENE) was subjected to SDS-PAGE in reducing and non-reducing conditions and probed with affinity-purified mAb428.3C11 (0.4 to 20 μg/ml, diluted in PBS from a 2 mg/ml stock).
Concentrated, serum-free culture medium from HEK293 cells (1 mg/ml total protein) was probed with anti-human IgG secondary antibody (HRP conjugate) to detect the chains of antibody in reducing and non-reducing conditions. C) Concentrated medium from HEK293 cells (1 mg/ml total protein) was directly used to probe purified human fibulin-3 (resolved by SDS-PAGE in non-reducing conditions).

Procedure for U251 glioblastoma cells: In FIG. 27C, U251 glioblastoma cells (5,000 cells/well) were incubated in conditioned medium from control-HEK293 or scFv-expressing HEK293 (1.5 mg/ml total protein). After 48 h cell viability was measured using the CellTiter-Glo kit to measure ATP production (PROMEGA cat #G7572).

Molecule: Cn1nnc2c(C(N)=O)ncn2c1=O [TMZ, temozolomide]
- cytotoxic effect of TMZ alone (U251MG glioma cells): modest, dose-dependent cytoxic effect

B1: scFv428.2: single-chain variable fragment derived from mAb428.2, VL-(G4S)3-VH with Myc and 6xHis tags; SEQ ID NOS: 25, 26 (protein)
scFv: DDIKMTQSPSSMYASLGERVTITCKASQDIKSYLSWHQQKPWKSPKTLIYYATSLADGVPSRFSGSGSGQDYSLTISSLESDDTATYYCLQHGKSPYTFGGGTKLEIKGGGGSGGGGSGGGGSQIQLVQSGPELKKPGETVKISCKASGYSFTTYGMSWVKQAPGKGLKWMGWINTYSGVPTYADDFKGRFAFFLETSASTAYLQINNLKNEDTATYFCARWVDYWGQGTTLTVSSEQKLISEEDLNMHTGHHHHHH
- detection of fibulin-3 by Western blotting (purified human fibulin-3): can detect denatured fibulin in reducing and non-reducing conditions
- detection of native fibulin-3 by dot-blotting (purified human fibulin-3; non-reduced fibulin-3 on nitrocellulose, scFv428.2 medium 1 mg/ml, mAb428.2 1 μg/ml): able to detect native fibulin-3 by dot-blotting
- cytotoxicity of culture media with scFv (U251 glioblastoma cells): induce cytotoxicity in glioblastoma cells

B2: chimeric mouse/human mAb428.2: recombinant chimeric antibody with VL and VH of mAb428.2; light chain SEQ ID NO: 23, heavy chain SEQ ID NO: 24 (antibody)
heavy: MYRMQLLSCIALSLALVTNSEVQLVEQIQLVQSGPELKKPGETVKISCKASGYSFTTYGMSWVKQAPGKGLKWMGWINTHSGVPTYADDFKGRFAFFLETSASTAYLQINNLKNEDTATYFCARWVDYWGQGTTLTVSSGTLVTVSSASTKGPSVFPLAPSSKSTSGGTAALGCLVKDYFPEPVTVSWNSGALTSGVHTFPAVLQSSGLYSLSSVVTVPSSSLGTQTYICNVNHKPSNTKVDKKVEPKSCDKTHTCPPCPAPELLGGPSVFIFPPKPKDVLTITLTPKVTCVVVDISKDDPEVQFSWFVDDVEVHTAQTQPREEQFNSTFRSVSELPIMHQDWLNGKEFKCRVNSAAFPAPIEKTISKTKGRPKAPQVYTIPPPKEQMAKDKVSLTCMITDFFPEDITVEWQWNGQPAENYKNTQPIMDTDGSYFVYSKLNVQKSNWEAGNTFTCSVLHEGLHNHHTEKSLSHSPGK
light: MQLLSCIALSLALVTNSDIQMTQSPSSLSASVGDRVTITCRASQSVSSADIKMTQSPSSMYASLGERVTITCKASQDIKSYLSWHQQKPWKSPKTLIYYATSLADGVPSRFSGSGSGQDYSLTISSLESDDTATYYCLQHGKSPYTFGGGTKLEIKGTKVEIKRTVAAPSVFIFPPSDSQLKSGTASVVCLLNNFYPREAKVQWKVDNALQSGNSQESVTEQDSKDSTYSLSSTLTLSKADYEKHKVYACEVTHQGLSSPVTKSFNRGEC
- detection of fibulin-3 by Western blotting (purified human fibulin-3): detects the same pattern of bands as purified mouse mAb428.2
